This data set in a line: label from the status in PepcDB records.
With “MTKTSSGLKIMFRKIKLEVVRMDLSTIFASLLGLFLSLLTTGVYRYYSKPKIHKTVGVVILNPDKVDAKKIPPNLPEGLRRVTNSLEQELVLKLKKDQQKKAMLLIKISIIGIIISTIGLILGQ”, the protein production result is reported as “failed”.

Turning to “MTKVHPKFPSTCEESLCDSKAAVVLTVWKKSLLFNCDGFTVYNANGELVFRVDNYMNCPRDNIVLMDASGFPLLSIRRKKLSLGDCWMVYDGETERDPIFTARKNVSIISNRKSLAWVSAKKTVLYEIEGSYGQRSCKILDERRNKKKTAEIKRKETVIGGVAFGKDVYKLIVESEMEPRVAMALTIILDQMFRSS”, the protein production entry was “failed”.

In the case of “MTKYGVVGTGYFGAELARFMSKVEGAKITAIYDPVNAAPIAKELNCVATATMEALCTHPDVDCVIIASPNYLRKAPVIAAAKAGKHVFCEKPIALNYQDCKDMVDACKEAGVTFMAGHVMNFFHGVRHAKALIKAGEIGEVTQVHTKRNGFEDVQDEISWKKIRAKSGGHLYHHIHELDCTLFIMDETPSLVSMAAGNVAHKGEKFGDEDDVVLITLEFESGRFATLQWGSSFHYPEHYVLIEGTTGAILIDMQNTAGYLIKAGKKTHFLVHESQAEDDDRRNGNISSEMDGAIAYGKPGKRTPMWLSSIMKLEMQYLHDVINGLEPGEEFAKLLTGEAATNAIATADAATLSSNEGRKVKLTEILG”, the protein production result is listed as “failed”.

In the case of “MTLAPPLPHSNSPCSPCCMDPLLRHGFCLDMSGEIYPVIRLPCSGAAKGVHVMIRFIVKLLLCALVLLPLPAFATSGADTGPDNRLLRMGVRAHGGFTRLSMAFERDIAPVLHQLSGNRVRLVFSNTVGGRWKKLRSYRDAHVEGVVVAPRGNDLMVTVTIKGDPRGVRVSTSPGAGVVSLDVGASLAPRRSPPLAQGREGIKVGVEQLITTFDPPFKSEIPFTPTDRRVLEAMVPPAEAALIMDGEAALYEGNGSEAAEIFAGIGTNSPGRPLALYRLGEANYLLQKYGDALRFFREAERQWPVFLTRSPSTAFCYADSVARSGDLAGGRRLLGSLIAGLADKKYAPALLVRMADILARQGKDQEALAIYRNVADNFTGSKGSWQARMKLADRRLLALEPAAYSSLVKDYLEIYERGTDFGLREQGLFKAALLLSLYGDADQAFARVAEYEKKFPRGMYVSIAKGMREELLVPVYRRITRAGDNEALVKLALENRDYLGRVLAEDDFIKNLSAAFADLGRIKEEVGLYANLAIREQNRVYAPELYRRILHDAEQLGDPTLMEKAAGEFVERFPAHPWVQRFREELAAVEYNRGDFQRVVGRLSGMLASGTRPEYAESLYYLGKSLDASGNRRDAERAMLLFLAELRRREMSSPLAADASYVAATARLSRGDRKGAKEILRAAGEASPEERDPFLYKLGEIARSEGRYEEAAHYLRTVVKEGKDPDWRDMASRLLADMELTGMVRKSK”, the protein production entry is on record as “failed”.

Take “MTLAPRHLRIEQRGRVLQVLLDNPPANFLTTAVMQELADLLEDLEQRQDIGAVILSGAADGVFLTHFDVDEIERAVAPITFSMPAWLTRLLLESESLLRHLPGARKLLRRTLLAGVADMNLFHEVTAHMRRMDKVFIAAINGLALGGGCELALACDLRLMAEDDQVERFLGQPEVLIGLIPGGGGTQMLARSLGVARALELCLEGQLLEPRQALALGLVNGLAPAEELLEAADALAQRLSRRSPQAVRLIKRSIYQAASRDWTEGMASEKAGFLSAASQGNTRRAMREYIERVRTITREERPFRRADFDDLTEGNAID”: the protein production result was “failed”.

As to “MTLDNRAFLKQSSKKLLFRFAVPAIFSLLVNELYNMVDTVFAGRYIGENAIGAMTIAFPIQKILIAMGLLIATGASTYAARVIGEKNYKELKKIVINSCALTIVSIISISFIIFQFKSSILYSLGASDNTYPMAVQYISIILFGSIFMCLASVMSYIMVSLGKTKTLLYTNIVGVLLNIILNYVLVIQLHMGIRGSGIATVLSQLAAFVVALVQFAYMNKKQNFKFFENISTNIISGDIIREIVLVGFSTFIIEIADAVVSAVLNNVLYAGGGDSAIIMLGVITKVYMFMFITVIGISSGMQPIVGYNFGAGNYKKAKDILKFSLKTVIIISAFVWVGFIIWAQPLIGFFLKDAQLVSKTVSAFRIVISMLPLLGIYYVAIYYYQAIGEARISFILSIYRELIMFIPMAVILFKIVGINGVFIAYPLTDIIVILTSVYFIRRAFKEQFAEESIPKRVGARA”, the protein production entry is reported as “failed”.

On to “MTLFAEYNSPYLFAIAFVFFIGVLEMISLIFGHFLSGALDAHLDHYDALSSGPAGQALHYLNIGRVPALVVLCLLAGYFGLFGILIQHGGIMLWQAPLSNLLLVPLSIVLSVFAVHYSGKILAPWLPRDESSALREEEFIGGMAIITGHAAVAGTPCEGKFTDKFGQIHYLLLEPEKGKEFKKGDKVLIICRLSATRYLAERTFYV”, for which the protein production result was “failed”.

The values are drawn from a protein production outcome set (Wang et al. 2014).
